Test results published in paper PMC8479507 (Cell Reports, 2021).

Target: SARS-CoV-2 receptor-binding domain (RBD) (SARS-CoV-2 (Wuhan-Hu-1), UniProt P0DTC2)
Assay: cell-based or functional assay

B1: monoclonal antibody 910-30, IgG (antibody, V domains shown)
VH: EVQLVESGGGLVQPGGSLRLSCAASGFTVSSNYMSWVRQAPGKGLEWVSLIYSGGSTYYADSVKGRFTISRHNSKNTLYLQMNSLRAEDTAVYYCARIYGDYAWGQGTLVTVSS
VL: not shown
IC50 of neutralisation of authentic SARS-CoV-2; blocks RBD binding to ACE2: 0.142 µg/mL
